# Reference: patent publication US20230183753A1, “Methods of in Vitro Cell Delivery” (Intellia Therapeutics, Inc., priority 2020, published 2023)
# Oligonucleotides are written 5' to 3', each unit as a sugar letter and its base; * is a phosphorothioate linkage, no mark a phosphodiester; rarer units and linkages stand in square brackets, end groups in braces. Plain capitals give the bases only. m = 2'-O-methyl; r = 2'-OH (RNA)
# B1: G015995: guide targeting B2M (SEQ ID NO: 711) (nucleic acid)
# guide: mU*mU*mA*rCrCrCrCrArCrUrUrArArCrUrArUrCrUrUrGrUrUrUrUrArGrAmGmCmUmAmGmAmAmAmUmAmGmCrArArGrUrUrArArArArUrArArGrGrCrUrArGrUrCrCrGrUrUrArUrCrAmAmCmUmUmGmAmAmAmAmAmGmUmGmGmCmAmCmCmGmAmGmUmCmGmGmUmGmCmU*mU*mU*mU
# Experiments:
# B2M, CD3, MHC II = assay: Flow cytometry of antigen negative T cells (B2M, CD3, MHC II) after BC22n or Cas9 editing, Example 16A; format: cell-based, human
# Source text: Cells were subsequently washed, processed on a Cytoflex instrument (Beckman Coulter) and analyzed using the FlowJo software package. T cells were gated based on size, shape, viability, and antigen expression.
# [1] = test system: B2M, TRAC, TRBC1/2, CIITA; assay: NGS editing profile of T cells with BC22n or Cas9 mRNA, single or four guides, LNP titration, Example 16A; format: cell-based, human; details: LNP;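 also: activated T cells exposed to LNPs 72 h after activation, kept at 37 °C, harvested on day 10 post activation, editing measured by NGS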
# Procedure: Cells were expanded in T cell basal media for 72 hours prior to LNP transfection.
# LNPs were mixed to fixed total mRNA weight ratios of 6:3:2 for editor mRNA, guide RNA, and UGI mRNA respectively as described in Table 12. […] LNP mixtures were incubated for 5 minutes at 37° C. in T cell basal media substituting 6% cynomolgus monkey serum (Bioreclamation IVT, Cat. CYN220760) for fetal bovine serum.
# T cells were incubated at 37° C. with 5% CO2 for the duration of the experiment.
# In total, T cells were exposed to 6 different LNPs simultaneously (editor mRNA, UGI mRNA, 4 guides).
# [2] = multiple guide delivery (four guides simultaneously), locus of the guide assayed, editor BC22n, total RNA 8.6 ng
# [3] = multiple guide delivery (four guides simultaneously), locus of the guide assayed, editor BC22n, total RNA 17.2 ng
# [4] = multiple guide delivery (four guides simultaneously), locus of the guide assayed, editor BC22n, total RNA 34.4 ng
# [5] = multiple guide delivery (four guides simultaneously), locus of the guide assayed, editor BC22n, total RNA 68.8 ng
# [6] = multiple guide delivery (four guides simultaneously), locus of the guide assayed, editor BC22n, total RNA 137.5 ng
# [7] = multiple guide delivery (four guides simultaneously), locus of the guide assayed, editor BC22n, total RNA 275.0 ng
# [8] = multiple guide delivery (four guides simultaneously), locus of the guide assayed, editor BC22n, total RNA 550.0 ng
# [9] = multiple guide delivery (four guides simultaneously), locus of the guide assayed, editor Cas9, total RNA 8.6 ng
# [10] = multiple guide delivery (four guides simultaneously), locus of the guide assayed, editor Cas9, total RNA 17.2 ng
# [11] = multiple guide delivery (four guides simultaneously), locus of the guide assayed, editor Cas9, total RNA 34.4 ng
# [12] = multiple guide delivery (four guides simultaneously), locus of the guide assayed, editor Cas9, total RNA 68.8 ng
# [13] = multiple guide delivery (four guides simultaneously), locus of the guide assayed, editor Cas9, total RNA 137.5 ng
# [14] = multiple guide delivery (four guides simultaneously), locus of the guide assayed, editor Cas9, total RNA 275.0 ng
# [15] = multiple guide delivery (four guides simultaneously), locus of the guide assayed, editor Cas9, total RNA 550.0 ng
# [16] = single guide delivery, editor BC22n, total RNA 8.6 ng
# [17] = single guide delivery, editor BC22n, total RNA 17.2 ng
# [18] = single guide delivery, editor BC22n, total RNA 34.4 ng
# [19] = single guide delivery, editor BC22n, total RNA 68.8 ng
# [20] = single guide delivery, editor BC22n, total RNA 137.5 ng
# [21] = single guide delivery, editor BC22n, total RNA 275.0 ng
# [22] = single guide delivery, editor BC22n, total RNA 550.0 ng
# [23] = single guide delivery, editor Cas9, total RNA 8.6 ng
# [24] = single guide delivery, editor Cas9, total RNA 17.2 ng
# [25] = single guide delivery, editor Cas9, total RNA 34.4 ng
# [26] = single guide delivery, editor Cas9, total RNA 68.8 ng
# [27] = single guide delivery, editor Cas9, total RNA 137.5 ng
# [28] = single guide delivery, editor Cas9, total RNA 275.0 ng
# [29] = single guide delivery, editor Cas9, total RNA 550.0 ng
molecule,measurement,setting,value
B1,"percent cells negative for antigen, B2M neg, Mean %","B2M, CD3, MHC II; editor BC22n, total RNA 8.6 ng",44.0%
same,"percent cells negative for antigen, B2M neg, Mean %","B2M, CD3, MHC II; editor BC22n, total RNA 17.2 ng",60.8%
same,"percent cells negative for antigen, B2M neg, Mean %","B2M, CD3, MHC II; editor BC22n, total RNA 34.4 ng",75.7%
same,"percent cells negative for antigen, B2M neg, Mean %","B2M, CD3, MHC II; editor BC22n, total RNA 68.8 ng",83.9%
same,"percent cells negative for antigen, B2M neg, Mean %","B2M, CD3, MHC II; editor BC22n, total RNA 137.5 ng",91.2%
same,"percent cells negative for antigen, B2M neg, Mean %","B2M, CD3, MHC II; editor BC22n, total RNA 275.0 ng",94.4%
same,"percent cells negative for antigen, B2M neg, Mean %","B2M, CD3, MHC II; editor BC22n, total RNA 550.0 ng",95.7%
same,"percent cells negative for antigen, B2M neg, Mean %","B2M, CD3, MHC II; editor Cas9, total RNA 8.6 ng",13.9%
same,"percent cells negative for antigen, B2M neg, Mean %","B2M, CD3, MHC II; editor Cas9, total RNA 17.2 ng",30.7%
same,"percent cells negative for antigen, B2M neg, Mean %","B2M, CD3, MHC II; editor Cas9, total RNA 34.4 ng",53.4%
same,"percent cells negative for antigen, B2M neg, Mean %","B2M, CD3, MHC II; editor Cas9, total RNA 68.8 ng",68.7%
same,"percent cells negative for antigen, B2M neg, Mean %","B2M, CD3, MHC II; editor Cas9, total RNA 137.5 ng",82.1%
same,"percent cells negative for antigen, B2M neg, Mean %","B2M, CD3, MHC II; editor Cas9, total RNA 275.0 ng",89.3%
same,"percent cells negative for antigen, B2M neg, Mean %","B2M, CD3, MHC II; editor Cas9, total RNA 550.0 ng",91.3%
same,C-to-A/G % mean,[1]; [2],3.8%
same,C-to-T % mean,[1]; [2],27.3%
same,Indel % mean,[1]; [2],2.6%
same,C-to-A/G % mean,[1]; [3],4.1%
same,C-to-T % mean,[1]; [3],47.2%
same,Indel % mean,[1]; [3],3.0%
same,C-to-A/G % mean,[1]; [4],3.9%
same,C-to-T % mean,[1]; [4],61.2%
same,Indel % mean,[1]; [4],2.6%
same,C-to-A/G % mean,[1]; [5],2.9%
same,C-to-T % mean,[1]; [5],81.4%
same,Indel % mean,[1]; [5],1.4%
same,C-to-A/G % mean,[1]; [6],2.6%
same,C-to-T % mean,[1]; [6],90.0%
same,Indel % mean,[1]; [6],1.3%
same,C-to-A/G % mean,[1]; [7],2.2%
same,C-to-T % mean,[1]; [7],94.7%
same,Indel % mean,[1]; [7],0.8%
same,C-to-A/G % mean,[1]; [8],2.9%
same,C-to-T % mean,[1]; [8],95.9%
same,Indel % mean,[1]; [8],0.4%
same,C-to-A/G % mean,[1]; [9],1.4%
same,C-to-T % mean,[1]; [9],0.3%
same,Indel % mean,[1]; [9],5.0%
same,C-to-A/G % mean,[1]; [10],1.3%
same,C-to-T % mean,[1]; [10],0.3%
same,Indel % mean,[1]; [10],10.5%
same,C-to-A/G % mean,[1]; [11],1.1%
same,C-to-T % mean,[1]; [11],0.3%
same,Indel % mean,[1]; [11],19.3%
same,C-to-A/G % mean,[1]; [12],0.9%
same,C-to-T % mean,[1]; [12],0.3%
same,Indel % mean,[1]; [12],34.4%
same,C-to-A/G % mean,[1]; [13],0.7%
same,C-to-T % mean,[1]; [13],0.2%
same,Indel % mean,[1]; [13],51.1%
same,C-to-A/G % mean,[1]; [14],0.5%
same,C-to-T % mean,[1]; [14],0.2%
same,Indel % mean,[1]; [14],68.0%
same,C-to-A/G % mean,[1]; [15],0.4%
same,C-to-T % mean,[1]; [15],0.3%
same,Indel % mean,[1]; [15],76.7%
same,C-to-A/G % mean,[1]; [16],7.7%
same,C-to-T % mean,[1]; [16],49.5%
same,Indel % mean,[1]; [16],6.0%
same,C-to-A/G % mean,[1]; [17],6.7%
same,C-to-T % mean,[1]; [17],68.5%
same,Indel % mean,[1]; [17],4.3%
same,C-to-A/G % mean,[1]; [18],5.7%
same,C-to-T % mean,[1]; [18],79.0%
same,Indel % mean,[1]; [18],3.8%
same,C-to-A/G % mean,[1]; [19],4.6%
same,C-to-T % mean,[1]; [19],88.2%
same,Indel % mean,[1]; [19],2.5%
same,C-to-A/G % mean,[1]; [20],4.1%
same,C-to-T % mean,[1]; [20],90.6%
same,Indel % mean,[1]; [20],2.2%
same,C-to-A/G % mean,[1]; [21],3.7%
same,C-to-T % mean,[1]; [21],92.6%
same,Indel % mean,[1]; [21],2.2%
same,C-to-A/G % mean,[1]; [22],2.8%
same,C-to-T % mean,[1]; [22],95.2%
same,Indel % mean,[1]; [22],1.6%
same,C-to-A/G % mean,[1]; [23],1.2%
same,C-to-T % mean,[1]; [23],0.3%
same,Indel % mean,[1]; [23],23.7%
same,C-to-A/G % mean,[1]; [24],0.9%
same,C-to-T % mean,[1]; [24],0.3%
same,Indel % mean,[1]; [24],41.1%
same,C-to-A/G % mean,[1]; [25],0.6%
same,C-to-T % mean,[1]; [25],0.3%
same,Indel % mean,[1]; [25],59.4%
same,C-to-A/G % mean,[1]; [26],0.4%
same,C-to-T % mean,[1]; [26],0.2%
same,Indel % mean,[1]; [26],76.8%
same,C-to-A/G % mean,[1]; [27],0.2%
same,C-to-T % mean,[1]; [27],0.1%
same,Indel % mean,[1]; [27],88.2%
same,C-to-A/G % mean,[1]; [28],0.1%
same,C-to-T % mean,[1]; [28],0.1%
same,Indel % mean,[1]; [28],95.1%
same,C-to-A/G % mean,[1]; [29],0.1%
same,C-to-T % mean,[1]; [29],0.1%
same,Indel % mean,[1]; [29],97.5%
